# Columns and labels:
# Type in all cases: cell-based, human
# [1] = tested on: Huh7 and ARE primary cells; assay: Effect of AAV ITRs: pAAV constructs transfected into Huh7 and ARE primary cells, compared with pGL4.10; conditions: mean of 3 biological replicates
# Source text: Following from Example 3, it was decided to take PB1-MinTK and PB1-2-MinTk forward for in vivo studies. To facilitate this the two aforementioned constructs were cloned into pAAV vector (Takara, Clontech) to allow for the preparation of AAV viruses. The inserts where cloned using restriction digest of the pAAV plasmid and PCR amplification of the original pGL4.10 constructs.
# We investigated the effect of the Inverted Terminal Repeats (ITRs) on the activity of the promoters. This was done as we have observed interference from the AAV ITRs in other projects. To this end, the pAAV-PB1-MinTk and pAAV-PB1-2-MinTk were transfected into Huh7 and ARE primary cells as previously described and their activity assessed.
# Huh7 cells = assay: EPO expression (ELISA of medium) from PB1-MinTK in Huh7 cells with CAR-containing plasmid, induction by CITCO
# Source text: • Huh7 cells which are a human liver cell line • DPBS: without CaCl2, without MgCl2 (Gibco, 14190-094) • DMEM (Sigma, D6546) • FBS (Sigma, F9665) • Pen-Strep (Sigma, P4333) • Promega Fugene-HD (E2311) • TCPOBOP (Sigma, T2320) • CITCO (Cayman Chemicals Company, 16027) • pcDNA6 plasmid which contains the β-galactosidase gene used as internal control for transfection efficiency (Thermofisher, V22020) • mouse CAR expression plasmid from Jouan et al, 2016 (BioCat GmbH, EX-Z4288-M51-10-GC). This was used as Huh7 is CAR deficient. • β-galactosidase substrate solution (Thermofisher, 75707/75710) • Pierce BCA kit (23225) • LARII (Dual Luciferase Reporter 1000 assay system, Promega, E1980) • EPO ELISA kit (Abcam, ab119522) Method: Day 1 • Cells were seeded onto a 48 well plate at a density of 25,000 cells/300 μl Day 2 • On the day of transfection, DNA to be transfected (CAR plasmid/PB1-MinTK operably linked with luciferase or EPO/pcDNA6 plasmid for internal control) was diluted to a 100 ng/μl stock solution. Per 48 Well Transfection: • 45 ng of DNA (15 ng of each plasmid, pcDNA6, CAR and test plasmid) was mixed with 4.1 μl of Optimem medium. • 0.5 μl of Fusion HD was mixed with 4 μl of Optimem medium. • These 2 solutions were mixed and incubated at room temperature for 15 minutes. • The final solution was then added to the well drop wise. • 3 hrs after transfection, the inducer TCPOBOP was added to the appropriate wells at the indicated concentration. Day 3 • 24 hrs after induction the media was removed from the cells. • The cells were washed once in 300 μl of DPBS • Cells were lysed using 100 μl of passive lysis buffer and incubation with rocking for 15 minutes • The cell debris was pelleted by centrifugation of the plate at max speed in a benchtop centrifuge for 1 min • For luciferase, 10 μl sample was transferred into white 96-well plate and luminescence measured by injection of 50 μl of LARII substrate. • β-galactosidase activity was measured as per manufacturer's instructions (Mammalian β-Galactosidase Assay Kit, 75707/75710, Thermo Scientific) using 25 μl of lysate. 25 μl of lysate was transferred into a microplate well and mixed with 25 μl of β-galactosidase Assay Reagent, equilibrated to room temperature. The mixture was incubated at 37° C. for 30 min and absorbance measured at 405 nm. • Protein concentration was measured as per manufacturer's instructions (Pierce™ BCA Protein Assay Kit, 23225/23227, Thermo Scientific) using 25 μl of lysate. 25 μl of lysate was transferred into a microplate well and mixed with 200 μl of working solution. The mixture was incubated at 37° C. for 30 min, cooled to room temperature and then absorbance measured around 562 nm. The protein concentration was calculated with respect to protein standard curve prepared from assaying standards with known protein concentration.
# Transfections with PB1-MinTk-EPO were performed as described above with the exception that EPO is secreted into the medium. Therefore, medium was collected, and EPO concentration measured as per manufacturer's instructions (ab119522 Erythropoietin (EPO) Human ELISA Kit, Abcam) using an ELISA assay. 50 μl of medium was transferred to a pre-washed microplate wells and mixed with 50 μl of 1× Biotin Conjugated Antibody. The mixture was incubated at room temperature for 1 hour. The wells were washed, 100 μl of Streptavadin-HRP was added and the plate was incubated at room temperature for 15 minutes. The wells were washed and then 100 μl of TMB Substrate Solution. The mixture was incubated at room temperature for 10 minutes. The enzyme reaction was stopped by addition of 100 μl of Stop Solution and absorbance was read at 450 nm. The EPO concentration was calculated with respect to EPO standard curve prepared from assaying standards with known EPO concentration.
# The PB1-MinkTK promoter was then used to drive expression of the protein EPO, which is of therapeutic interest. […]
# AXOL ARE hepatocytes = assay: Luciferase expression from pAAV constructs in AXOL ARE hepatocytes without CITCO, with CITCO and after CITCO withdrawal; conditions: pAAV vector
# Method: Luciferase expression from the PB1-MinTK and PB1-2-MinTK constructs in the pAAV vector in AXOL ARE hepatocytes is inducible by CITCO (1 μM) but reduces after removing CITCO as shown in FIG. 5.
molecule,measurement,setting,value
"PB1-MinTK: promoter: single mouse PBREM element and MinTK minimal promoter, SEQ ID NO: 7 (nucleic acid, PB1-MinTK) DNA: TCTGTACTTTCCTGACCTTGGCACAGTGCCACCATCAACTTGCCTGACACCGATCCGGCCCCGCCCAGCGTCTTGTCATTGGCGAATTCGAACACGCAGATGCAGTCGGGGCGGCGCGGTCCGAGGTCCACTTCGCATATTAAGGTGACGCGTGTGGCCTCGAACACCGAGCGACCCTGCAGCGACCCGCTTAACAGCGTCAACAGCGTGCCGCAGATCTCGAGGAGCTTGGCGAGATTTTCAGGAGCTAAGGAAGCTAAAC",induction of luciferase expression across pGL4.10 and pAAV vectors and cell types,[1],comparable across vectors and cell types
same,overall EPO expression level relative to CMV-IE,Huh7 cells; CITCO induced (data not shown),around 22%
same,EPO production,Huh7 cells; addition of up to 2 μM CITCO,marked increase in the production of EPO
same,EPO expression,Huh7 cells; highest concentration of CITCO (3 μM),returns towards baseline activity
same,EPO expression,Huh7 cells; no addition of the drug (DMSO),very little expression of EPO
same,luciferase expression with CITCO,AXOL ARE hepatocytes; CITCO (1 μM),inducible
same,activity of the promoter after removal of CITCO,AXOL ARE hepatocytes; CITCO withdrawal,almost baseline levels
